Reference: patent US20200299413A1 (BIOMUNEX PHARMACEUTICALS, published 2020)

Target: CD38 on RPMI-8226 multiple myeloma cells (UniProt P28907 1-300, limits assumed)
Assay: cell-based or functional assay

ADCC (51Chromium release) EC50 on RPMI-8226 cells, non-pre-activated MNC effectors: 0.3 nM
B1: parental anti-CD38 mAb (daratumumab) (antibody, V domains shown)
VH: EVQLLESGGGLVQPGGSLRLSCAVSGFTFNSFAMSWVRQAPGKGLEWVSAISGSGGGTYYADSVKGRFTISRDNSKNTLYLQMNSLRAEDTAVYFCAKDKILWFGEPVFDYWGQGTLVTVSS
VL: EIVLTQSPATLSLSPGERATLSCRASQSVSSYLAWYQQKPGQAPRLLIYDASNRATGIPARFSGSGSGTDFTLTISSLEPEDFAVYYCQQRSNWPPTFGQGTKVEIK
